Numbering of substitutions follows the chain as printed. Names and notes keep the numbering of the source.
T1: human FLT3 on AML5 cells (human) (UniProt P36888)
T1 sequence (looked up): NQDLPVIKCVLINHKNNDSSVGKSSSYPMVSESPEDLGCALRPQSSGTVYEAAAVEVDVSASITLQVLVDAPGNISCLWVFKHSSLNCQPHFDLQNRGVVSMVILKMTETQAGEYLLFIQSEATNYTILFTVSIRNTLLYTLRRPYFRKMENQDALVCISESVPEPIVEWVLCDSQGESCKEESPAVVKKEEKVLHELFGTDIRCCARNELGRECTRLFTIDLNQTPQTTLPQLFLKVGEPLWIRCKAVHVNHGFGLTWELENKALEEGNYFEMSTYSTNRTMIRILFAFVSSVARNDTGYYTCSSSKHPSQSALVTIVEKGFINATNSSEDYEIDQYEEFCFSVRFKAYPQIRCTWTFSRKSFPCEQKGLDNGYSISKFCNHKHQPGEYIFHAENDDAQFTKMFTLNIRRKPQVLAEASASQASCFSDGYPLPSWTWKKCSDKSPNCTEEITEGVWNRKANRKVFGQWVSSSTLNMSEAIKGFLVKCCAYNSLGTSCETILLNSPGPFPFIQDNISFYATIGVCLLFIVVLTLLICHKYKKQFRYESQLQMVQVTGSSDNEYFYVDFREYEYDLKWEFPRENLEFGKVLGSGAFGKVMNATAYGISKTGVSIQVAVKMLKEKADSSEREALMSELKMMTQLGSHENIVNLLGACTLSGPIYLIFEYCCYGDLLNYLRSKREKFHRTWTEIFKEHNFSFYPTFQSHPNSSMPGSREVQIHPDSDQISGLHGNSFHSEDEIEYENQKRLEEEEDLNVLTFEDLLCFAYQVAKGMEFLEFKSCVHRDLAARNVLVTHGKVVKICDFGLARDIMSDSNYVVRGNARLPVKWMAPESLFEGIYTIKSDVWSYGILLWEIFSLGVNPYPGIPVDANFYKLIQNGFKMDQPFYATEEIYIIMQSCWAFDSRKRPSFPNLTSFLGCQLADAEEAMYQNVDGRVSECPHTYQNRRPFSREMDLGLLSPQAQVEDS

T2: mouse FLT3 on M1 cells (mouse) (UniProt Q00342)
T2 sequence (looked up): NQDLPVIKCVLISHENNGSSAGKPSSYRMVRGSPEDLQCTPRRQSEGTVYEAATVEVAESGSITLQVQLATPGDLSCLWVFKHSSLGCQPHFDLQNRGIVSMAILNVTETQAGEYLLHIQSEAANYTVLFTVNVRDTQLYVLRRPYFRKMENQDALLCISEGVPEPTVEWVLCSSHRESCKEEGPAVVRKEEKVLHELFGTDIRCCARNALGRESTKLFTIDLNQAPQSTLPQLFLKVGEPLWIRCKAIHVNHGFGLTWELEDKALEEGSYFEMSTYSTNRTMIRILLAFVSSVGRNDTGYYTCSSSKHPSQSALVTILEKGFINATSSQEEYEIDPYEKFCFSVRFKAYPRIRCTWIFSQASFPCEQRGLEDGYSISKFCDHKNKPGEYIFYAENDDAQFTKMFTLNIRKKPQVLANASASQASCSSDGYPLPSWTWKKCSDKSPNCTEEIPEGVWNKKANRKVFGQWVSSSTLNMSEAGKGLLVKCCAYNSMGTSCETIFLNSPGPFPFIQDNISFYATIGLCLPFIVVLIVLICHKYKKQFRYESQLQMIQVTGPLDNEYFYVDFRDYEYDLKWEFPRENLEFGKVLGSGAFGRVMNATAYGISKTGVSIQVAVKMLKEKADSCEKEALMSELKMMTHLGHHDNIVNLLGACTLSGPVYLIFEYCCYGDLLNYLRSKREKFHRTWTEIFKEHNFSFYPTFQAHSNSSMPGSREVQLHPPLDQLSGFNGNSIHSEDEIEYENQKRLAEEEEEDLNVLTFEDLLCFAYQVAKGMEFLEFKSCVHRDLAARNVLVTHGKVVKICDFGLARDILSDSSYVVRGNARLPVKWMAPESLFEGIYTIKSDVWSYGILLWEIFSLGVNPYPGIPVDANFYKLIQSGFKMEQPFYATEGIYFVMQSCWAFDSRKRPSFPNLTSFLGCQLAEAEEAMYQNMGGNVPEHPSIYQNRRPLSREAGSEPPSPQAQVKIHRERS

B1: mouse FLT3-ligand mouse IgG2a (LALA-PG) fusion protein (SEQ ID NO:19) (Fc fusion)
chain: TPDCYFSHSPISSNFKVKFRELTDHLLKDYPVTVAVNLQDEKHCKALWSLFLAQRWIEQLKTVAGSKMQTLLEDVNTEIHFVTSCTFQPLPECLRFVQTNISHLLKDTCTQLLALKPCIGKACQNFSRCLEVQCQPDSSTLLPPRSPIALEATELPEPRGPTIKPCPPCKCPAPNAAGGPSVFIFPPKIKDVLMISLSPIVTCVVVDVSEDDPDVQISWFVNNVEVHTAQTQTHREDYNSTLRVVSALPIQHQDWMSGKEFKCKVNNKDLGAPIERTISKPKGSVRAPQVYVLPPPEEEMTKKQVTLTCMVTDFMPEDIYVEWTNNGKTELNYKNTEPVLDSDGSYFMYSKLRVEKKNWVERNSYSCSVVHEGLHNHHTTKSFSRTPGK
B2: mouse FLT3-ligand mouse IgG2a (C136S LALA-PG) fusion protein (SEQ ID NO:20) (Fc fusion)
chain: B1 chain with C109S
B3: recombinant human FLT3-ligand human IgG1 fusion protein (Fc fusion, UniProt P49771 27-185, looked up, not shown: a dimerising Fc or GST)
chain: TQDCSFQHSPISSDFAVKIRELSDYLLQDYPVTVASNLQDEELCGGLWRLVLAQRWMERLKTVAGSKMQGLLERVNTEIHFVTKCAFQPPPSCLRFVQTNISRLLQETSEQLVALKPWITRQNFSRCLELQCQPDSSTLPPPWSPRPLEATAPTAPQPP
B4: recombinant human FLT3-ligand (ligand, UniProt P49771 27-185, looked up)
chain: B3 chain

What was measured:
[1] = molecular target: T1, human FLT3 on AML5 cells (human); experiment: cell-based or functional assay
[2] = molecular target: T2, mouse FLT3 on M1 cells (mouse); experiment: cell-based or functional assay

Binder | EC50 (nM), Inducing Proliferation of AML5 Cells [1] [nM] | EC50(nM), M1 IL-6 release assay [2] [nM] | Emax(pg/ml), M1 IL-6 release assay [2] [pg/mL]
B1 | 0.171 |  | 
B2 | 0.115 |  | 
B3 |  | 0.117 | 517
B4 | 0.039 | 0.024 | 392

From patent US20220049021A1
